# According to IntAct's records for PubMed 18191225:
# B1: Caveolin-3 (Mus musculus), P51637 (parent)
# chain: MMTEEHTDLEARIIKDIHCKEIDLVNRDPKNINEDIVKVDFEDVIAEPEGTYSFDGVWKVSFTTFTVSKYWCYRLLSTLLGVPLALLWGFLFACISFCHIWAVVPCIKSYLIEIQCISHIYSLCIRTFCNPLFAALGQVCSNIKVVLRREG
# partner: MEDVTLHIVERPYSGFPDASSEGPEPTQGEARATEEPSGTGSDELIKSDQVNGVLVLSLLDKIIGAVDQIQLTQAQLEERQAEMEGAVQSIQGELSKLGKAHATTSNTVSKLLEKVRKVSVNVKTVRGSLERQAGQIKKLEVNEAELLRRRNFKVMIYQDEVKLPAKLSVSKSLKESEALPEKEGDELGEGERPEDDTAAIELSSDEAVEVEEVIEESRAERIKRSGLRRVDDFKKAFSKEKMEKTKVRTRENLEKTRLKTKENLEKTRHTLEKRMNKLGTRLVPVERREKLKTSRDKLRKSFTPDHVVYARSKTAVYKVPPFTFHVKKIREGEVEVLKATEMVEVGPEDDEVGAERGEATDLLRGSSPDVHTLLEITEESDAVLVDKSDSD
# Variants of: B1
# Conditions: with cavn1_mouse Cavin1, O54724
row,effect of a mutation on the interaction,Variant
1,decreasing interaction,P105L
